Data published in patent publication US20240400663A1 (Regeneron, published 2024).

What was measured:
Experiment in all cases: cell-based or functional assay
[1] = molecular target: PfRH5 of Plasmodium falciparum strain D10 (on live parasites) (Plasmodium falciparum)
[2] = molecular target: PfRH5 of Plasmodium falciparum strain 7G8 (on live parasites) (Plasmodium falciparum)
[3] = molecular target: PfRH5 of Plasmodium falciparum strain W2-mef (on live parasites) (Plasmodium falciparum)
[4] = molecular target: PfRH5 of Plasmodium falciparum strain Cam3.II (on live parasites) (Plasmodium falciparum)
[5] = molecular target: PfRH5 of Plasmodium falciparum strain HB3 (on live parasites) (Plasmodium falciparum)
[6] = molecular target: PfRH5 of Plasmodium falciparum strain RF7 (on live parasites) (Plasmodium falciparum)
[7] = molecular target: PfRH5 of Plasmodium falciparum strain FCR-1/FVO (on live parasites) (Plasmodium falciparum)
[8] = molecular target: PfRH5 of Plasmodium falciparum strain Dd2 (on live parasites) (Plasmodium falciparum)

Binder	Max growth inhibition (%) D10 [1] [%]	Max growth inhibition (%) 7G8 [2] [%]	Max growth inhibition (%) W2-mef [3] [%]	Max growth inhibition (%) Cam3.II [4] [%]	Max growth inhibition (%) HB3 [5] [%]	Max growth inhibition (%) RF7 [6] [%]	Max growth inhibition (%) FCR-1/FVO [7] [%]	Max growth inhibition (%) Dd2 [8] [%]
H1H29192P2 (antibody, V domains shown) VH: QVQLVQSGAEVKKPGASVRVSCMASGYTFTGYYMHWVRQAPGQGLEWMGWINPNSGGTKYAQKFQGRVTMTRDTSISTAYMELSRLRSDDTAVYYCAREEVDDFWSGYLDYWGQGTLVTVSS VL: not shown	8.7	12.4	4.35	-3.38	5.62	-7.69	15.1	-15.2
H1H29207P2 (antibody, V domains shown) VH: EVQLVESGGGLVQPGGSLRLSCAASGFTFSSYAMNWVRQAPGKGLEWVSAVSGSADITNYADSVKGRFTISRDNSKHTLYLQMNSLRAEDTAVYYCAKDKVYNWNYGIYYGMDVWGQGTTVTVSS VL: not shown	73.9	58.7	65.2	45.3	49.3	31.1	69.2	61.3
H1H29109P (antibody, V domains shown) VH: EVQLVESGGGLVQPGRSLRLSCAVSGFTFDDYAMHWVRQAPGKGLEWVSGISWNSGDIDYADSVKGRFTISRDNAKNSLYLQMNSLRAEDTALYYCAKDTLSGTGTTWYYFDYWGQGTLVTVSS VL: DIQLTQSPSFLSASVGDRVTITCWASQGISSYLIWYQQKPGKAPKLLIYAASTLQSGVPSRFSGSGSGTEFTLTISSLQPEDFATYYCQQVNSYPLTFGGGTKVEIKR	44.8	39	37.9	35.9	32.2	8.24	56.7	42
H1H29106P (antibody, V domains shown) VH: QVQLVESGGGVVQSGRSLRLSCAASSFTFSSYGMHWVRQSPGKGLEWVAVISYDGSNKYYGDFVRGRFTISRDNSKNTLYLQMNSLRAEDTAMYYCAREVRRYYYYGMDVWGQGTTVTVSS VL: not shown	74.9	55.5	48.9	51.7	48.4	27.4	54.3	54
H1H29215P2 (antibody, V domains shown) VH: QVQLQQWGAGLLKPSETLSLTCAVSDESFSDYYWTWIRQPPGKGLEWIGEITHSGSTHYNPSLKSRVTLSVDTSKNHFSLSLNSVTAADTAIYYCARGGDYGGLLDYWGQGTLVTVSS VL: not shown	35.8	33.2	37.2	27.2	30.1	11.3	54	22.8
H1H29209P2 (antibody, V domains shown) VH: QLQLQESGPGLVKPSETLSLTCTVSGGSISSRSHYWGWIRQPPGKGLEWIGSIYYSGSTYYNPSLKSRVTISVDTSKNQFSLKLSSVTAADTAVYYCARLGWYAEEAFEIWGQGTMVTVSS VL: not shown	72.7	49.9	39.6	47.3	52.4	11.9	19.2	38.1
H1H29214P2 (antibody, V domains shown) VH: QLQLQESGPGLVKPSETLSLTCTVSGGSISSSSYYWGWIRQPPGKGLEWIGSIYYSGSTYYNPSLKSRVTISVDTSKNQFSLKLSSVTAADTAVYYCARQGRWERENFDYWGQGTLVTVSS VL: not shown	76.5	56.7	52.7	46.7	59.1	11.2	13.1	47.2
H1H29094P (antibody, V domains shown) VH: not shown VL: DIQMTQSPSSLSASVGDRVTITCQASQDINRDLNWYQQKSGKGPKLLIYDASNLETGVPSRFSGNRFGTDFTFTISRLQPEDIATYFCQQYKNLPYTFGQGTKLEIKR	35.9	29.9	34.9	26.2	45.4	15.2	51.2	41.6
H1H29196P2 (antibody, V domains shown) VH: EVQLVESGGDLVQPGGSLRLSCAASGFAVNGDYFSWVRQAPGKGLEWISVIYSSGNTYYADSVKGRFTISRHNSKNTLYLQMSSLRPEDTAVYYCARDFPPMSGADYWGQGTLVTVSS VL: not shown	14.3	23.4	17	6.09	26.8	3.78	21.9	-1.65
H1H29198P2 (antibody, V domains shown) VH: QVQLVQSGAEVKKPGASVKVSCKVSGYTLTELSMHWVRQAPGKGLEWMGGFDPEHGKIIYAQKFQGRVTMTEDTSTDTAYMELSSLRSEDTAVYYCATFYNWNSYYFGMDVWGHGTTVTVSS VL: not shown	4.38	5.31	-3.61	14.7	15.5	1.53	11.1	10.1
